Assay results as given in patent US20180355059A1 (PHARMAEXPLORER, published 2018).
Where a chain is given by its changes, count along the chain named.

B1: AF-mab023_01 (antibody, V domains shown)
VH: EVQLVESGGGLVQPGGSLRLSCAASGITFSSYWMSWVRQAPGKGLEWVANIKQDGSEKYYVDSVKGRFTISRDIAKNSLYLQMNSLRAEDTAVYYCARDRGTYYYGIGSYNYYYYGMDVWGQGTTVTVSS
VL: not shown
B2: AF-mab023_02 (antibody, V domains shown)
VH: B1 VH with G106W, I107L, S109T
VL: not shown
B3: AF-mab023_03 (antibody, V domains shown)
VH: B1 VH with G106A, I107S
VL: not shown
B4: AF-mab023_04 (antibody, V domains shown)
VH: B1 VH with G106D, I107S, S109G
VL: not shown
B5: AF-mab023_05 (antibody, V domains shown)
VH: B1 VH with Y105H, G106W, I107L
VL: not shown
B6: AF-mab023_06 (antibody, V domains shown)
VH: B1 VH with Y105F, G106Q, I107S
VL: not shown
B7: AF-mab023_07 (antibody, V domains shown)
VH: B1 VH with G106Q, I107Q
VL: not shown
B8: AF-mab023_08 (antibody, V domains shown)
VH: B1 VH with Y105I, G106A, I107D
VL: not shown
B9: AF-mab023_10 (antibody, V domains shown)
VH: B1 VH with G106D, I107S, S109R
VL: not shown
B10: AF-mab023_11 (antibody, V domains shown)
VH: B1 VH with G106Q, I107E
VL: not shown
B11: AF-mab023_12 (antibody, V domains shown)
VH: B1 VH with G106T, I107E, S109G
VL: not shown
B12: AF-mab023_13 (antibody, V domains shown)
VH: B1 VH with G106T, I107E
VL: not shown
B13: AF-mab023_14 (antibody, V domains shown)
VH: B1 VH with G106A, I107D, S109G
VL: not shown
B14: AF-mab023_15 (antibody, V domains shown)
VH: B1 VH with G106Q, I107D, S109N
VL: not shown
B15: AF-mab023_16 (antibody, V domains shown)
VH: B1 VH with G106Q, I107D, S109K
VL: not shown
B16: AF-mab023_17 (antibody, V domains shown)
VH: B1 VH with Y105T, I107M, S109E
VL: not shown
B17: AF-mab023_18 (antibody, V domains shown)
VH: B1 VH with G106A, I107D, S109D
VL: not shown
B18: AF-mab023_19 (antibody, V domains shown)
VH: B1 VH with G106A, I107S, S109K
VL: not shown

Target: T1, recombinant human PCSK9-His protein (Immunogen A) (human, UniProt Q8NBP7 31-692, limits assumed, biotinylated in the ELISA assays)
T1 construct: also called hPCSK9-His; His-tagged hPCSK9; not shown: His tag
Assay: SPR, Biacore;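 note: antibodies captured via immobilized anti-human Fc IgG on a CM5 chip, PCSK9 as analyte in HBS-EP+ buffer, 400 s dissociation, reference flow cell subtracted, 1:1 binding model fit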
Description: Anti-human Fc IgG was immobilized on flow cells 1 and 2: HBS-EP+(10 mM HEPES, 150 mM NaCl, 3 mM EDTA, 0.05% P20, pH 7.4) was used as running buffer, and the immobilization of anti-human Fc IgG was carried out using the immobilization wizard template. Flow cells 1 and 2 of a Series S CM5 sensor chip were activated with freshly-mixed 50 mmol/L NHS and 200 mmol/L EDC. 20 ug/mL of anti-human Fc IgG diluted in 10 mM NaAC (pH 4.5) was injected into the activated flow cells 1 and 2. The remaining active coupling sites were blocked with 1M ethanolamine.
KD measurements were carried out with HBS-EP+ as the running buffer. Each antibody was injected over the CM5 sensor flow cell 2 with a flow rate of 10 uL/min to reach response 230 RU. […] Buffer flow was maintained for 400 seconds for dissociation measurements (30 uL/min). To remove the tested antibody from the surface, 10 mM glycine-HCl pH 1.5 was injected for 20 seconds (30 ulJmin). Flow cell 1 was used as reference flow cell. […] The KD value for each antibody was evaluated using Biacore T200 evaluation software 1.0, and the data was fit with a 1:1 binding model.

Binder	Kd [pM]	koff [s⁻¹]	kon [M⁻¹ s⁻¹]
B1	360	0.000115	320000
B2	268	8.2e-05	306000
B3	1240	0.00046	370000
B4	409	0.000239	584000
B5	207	6.31e-05	305000
B6	225	6.59e-05	293000
B7	653	0.000214	327000
B8	443	0.000158	357000
B9	1050	0.000328	313000
B10	260	0.000144	553000
B11	176	8.47e-05	480000
B12	392	0.000178	455000
B13	306	0.000164	534000
B14	381	0.000182	477000
B15	447	0.000143	319000
B16	310	0.000109	351000
B17	292	0.000161	551000
B18	1550	0.000351	226000
